Source: the Immune Epitope Database (IEDB)
Values belong to the sequence of their own block, whether it stands above or below them.

Tests used:
HLA-A*01:01 [1] = test: IEDB peptide-MHC binding, purified MHC/direct/fluorescence; filed as Kd, often an IC50 or EC50 that approximates it; ≥ and ≤ were set here for values at or beyond the usual limits of such assays
HLA-A*02:01 = test: as above
HLA-A*03:01 = test: as above
HLA-A*11:01 = test: as above
HLA-A*26:02 = test: as above
HLA-A*26:03 = test: as above
HLA-A*31:01 = test: as above
HLA-A*68:02 [2] = test: as above; details: source organism: Vibrio vulnificus YJ016
HLA-A*69:01 = test: as above
HLA-B*07:02 = test: as above
HLA-B*08:01 = test: as above
HLA-B*15:01 [3] = test: as above
HLA-B*15:17 [4] = test: as above; details: source organism: Vibrio vulnificus YJ016
HLA-B*18:01 = test: as above
HLA-B*27:05 = test: as above
HLA-B*39:01 = test: as above; details: source organism: Vibrio vulnificus YJ016
HLA-B*48:01 = test: as above
HLA-B*57:01 [5] = test: as above; details: source organism: Vibrio vulnificus YJ016
HLA-B*58:01 = test: as above
HLA-B*73:01 = test: as above; details: source organism: Vibrio vulnificus YJ016
HLA-A*26:01 = test: as above
HLA-B*08:02 = test: as above; details: source organism: Giardia lamblia ATCC 50803
HLA-B*40:01 = test: as above
HLA-B*46:01 = test: as above; details: source organism: Giardia lamblia ATCC 50803
HLA-A*01:01 [6] = test: IEDB peptide-MHC binding, purified MHC/competitive/fluorescence; filed as Kd, often an IC50 or EC50 that approximates it; ≥ and ≤ were set here for values at or beyond the usual limits of such assays; details: source organism: Giardia lamblia ATCC 50803
HLA-A*68:02 [7] = test: as above; details: source organism: Giardia lamblia ATCC 50803
HLA-B*15:01 [8] = test: as above; details: source organism: Giardia lamblia ATCC 50803
HLA-B*15:17 [9] = test: as above; details: source organism: Giardia lamblia ATCC 50803
HLA-B*57:01 [10] = test: as above; details: source organism: Giardia lamblia ATCC 50803
HLA-A*24:03 = test: IEDB peptide-MHC binding, purified MHC/direct/fluorescence; filed as Kd, often an IC50 or EC50 that approximates it; ≥ and ≤ were set here for values at or beyond the usual limits of such assays
HLA-B*35:01 = test: as above
HLA-B*44:02 = test: as above
[11] = source organism: Vibrio vulnificus YJ016
[12] = source organism: Giardia lamblia ATCC 50803
[13] = source organism: Escherichia coli O157:H7
[14] = source organism: Rickettsia prowazekii

Sequence: KRFYQTVGF
Kd (HLA-A*01:01 [1]; [11]): ≥ 20 µM | Kd (HLA-A*02:01; [11]): ≥ 20 µM | Kd (HLA-A*03:01; [11]): ≥ 20 µM | Kd (HLA-A*11:01; [11]): ≥ 20 µM | Kd (HLA-A*26:02; [11]): ≥ 20 µM | Kd (HLA-A*26:03; [11]): ≥ 20 µM | Kd (HLA-A*31:01; [11]): ≥ 20 µM | Kd (HLA-A*68:02 [2]): ≥ 20 µM | Kd (HLA-A*69:01; [11]): ≥ 20 µM | Kd (HLA-B*07:02; [11]): ≥ 20 µM | Kd (HLA-B*08:01; [11]): ≥ 20 µM | Kd (HLA-B*15:01 [3]; [11]): ≥ 20 µM | Kd (HLA-B*15:17 [4]): ≥ 20 µM | Kd (HLA-B*18:01; [11]): ≥ 20 µM | Kd (HLA-B*27:05; [11]): 0.0895 µM | Kd (HLA-B*39:01): ≥ 20 µM | Kd (HLA-B*48:01; [11]): ≥ 20 µM | Kd (HLA-B*57:01 [5]): ≥ 20 µM | Kd (HLA-B*58:01; [11]): ≥ 20 µM | Kd (HLA-B*73:01): 4 µM

Sequence: KSNRIPFLY
Kd (HLA-A*02:01; [12]): ≥ 20 µM | Kd (HLA-A*03:01; [12]): 0.022 µM | Kd (HLA-A*11:01; [12]): 0.007 µM | Kd (HLA-A*26:01; [12]): ≥ 20 µM | Kd (HLA-A*26:02; [12]): ≥ 20 µM | Kd (HLA-A*26:03; [12]): ≥ 20 µM | Kd (HLA-A*31:01; [12]): 2.37 µM | Kd (HLA-B*07:02; [12]): ≥ 20 µM | Kd (HLA-B*08:01; [12]): ≥ 20 µM | Kd (HLA-B*08:02): ≥ 20 µM | Kd (HLA-B*18:01; [12]): ≥ 20 µM | Kd (HLA-B*27:05; [12]): ≥ 20 µM | Kd (HLA-B*40:01; [12]): ≥ 20 µM | Kd (HLA-B*46:01): ≥ 20 µM | Kd (HLA-B*48:01; [12]): ≥ 20 µM | Kd (HLA-B*58:01; [12]): 0.002 µM | Kd (HLA-A*01:01 [6]): 0.203 µM | Kd (HLA-A*68:02 [7]): ≥ 20 µM | Kd (HLA-B*15:01 [8]): 0.212 µM | Kd (HLA-B*15:17 [9]): 0.01 µM | Kd (HLA-B*57:01 [10]): 0.243 µM

Kd (HLA-A*01:01 [1]; [13]): 0.0197 µM | Kd (HLA-A*02:01; [13]): ≥ 20 µM | Kd (HLA-A*03:01; [13]): ≥ 20 µM | Kd (HLA-A*11:01; [13]): ≥ 20 µM | Kd (HLA-A*24:03; [13]): ≥ 20 µM | Kd (HLA-A*26:01; [13]): ≥ 20 µM | Kd (HLA-A*31:01; [13]): ≥ 20 µM | Kd (HLA-A*69:01; [13]): ≥ 20 µM | Kd (HLA-B*07:02; [13]): ≥ 20 µM | Kd (HLA-B*08:01; [13]): ≥ 20 µM | Kd (HLA-B*15:01 [3]; [13]): 15.2 µM | Kd (HLA-B*27:05; [13]): ≥ 20 µM | Kd (HLA-B*35:01; [13]): 1.04 µM | Kd (HLA-B*40:01; [13]): ≥ 20 µM | Kd (HLA-B*44:02; [13]): ≥ 20 µM | Kd (HLA-B*58:01; [13]): ≥ 20 µM
Sequence: PSSKPDWFY

Sequence: QFAGGSFDF
Kd (HLA-A*01:01 [1]; [14]): ≥ 20 µM | Kd (HLA-A*02:01; [14]): ≥ 20 µM | Kd (HLA-A*03:01; [14]): ≥ 20 µM | Kd (HLA-A*11:01; [14]): ≥ 10 µM | Kd (HLA-A*24:03; [14]): 0.336 µM | Kd (HLA-A*26:01; [14]): ≥ 20 µM | Kd (HLA-A*69:01; [14]): ≥ 20 µM | Kd (HLA-B*07:02; [14]): ≥ 20 µM | Kd (HLA-B*08:01; [14]): ≥ 20 µM | Kd (HLA-B*15:01 [3]; [14]): 0.35 µM | Kd (HLA-B*35:01; [14]): 0.0141 µM | Kd (HLA-B*40:01; [14]): ≥ 20 µM | Kd (HLA-B*44:02; [14]): ≥ 20 µM | Kd (HLA-B*58:01; [14]): 0.0416 µM
